The target of this assay is Leishmania major actin (Leishmania major) (UniProt P45520). As to the kind of experiment: ITC. For orientation: ITC needs no label: the signal is the heat of the interaction.

In publication doi:10.1101/2023.01.06.522972 one finds Kd data, which are given here for 2 substances.

By Kd is commonly meant the concentration at which binding is half-saturated.

Chain of Leishmania major actin (Leishmania major) (P45520 2-376): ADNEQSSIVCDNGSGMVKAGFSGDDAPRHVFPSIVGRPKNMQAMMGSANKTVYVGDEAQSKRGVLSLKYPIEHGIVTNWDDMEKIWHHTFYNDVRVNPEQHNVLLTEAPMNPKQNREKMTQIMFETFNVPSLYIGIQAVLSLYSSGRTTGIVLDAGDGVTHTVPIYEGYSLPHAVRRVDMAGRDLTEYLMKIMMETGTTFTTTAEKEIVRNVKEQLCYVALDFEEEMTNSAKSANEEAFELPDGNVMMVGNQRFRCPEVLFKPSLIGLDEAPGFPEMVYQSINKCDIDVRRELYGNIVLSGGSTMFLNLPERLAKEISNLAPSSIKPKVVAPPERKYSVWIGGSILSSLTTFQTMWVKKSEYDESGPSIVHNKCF

In the case of LmProfilin-K68A (natural protein), the Kd came to 6 µM.

Turning to LmProfilin-Y6A (natural protein), the Kd is 0.08 µM.
